Assay results published in article PMC8223116, “A novel G-quadruplex aptamer-based spike trimeric antigen test for the detection of SARS-CoV-2”.

Target: SARS-CoV-2 spike RBD (SARS-CoV-2, UniProt P0DTC2 319-541)
Test: ALISA

| Binder | binding result |
| --- | --- |
| TCGTTGGTGGCGGCGTGCCCGGGGCACGGGGACGTCTCGCACGGC (ssDNA) [S13 truncated (45-mer)] | no binding |
| TGGGAGCCTGGGACATAGTGGGGAAAGAGGGGAAGAGTGGGTCT (structured_DNA) [S14 truncated (44-mer)] | no binding |
